Measured values: patent publication US20230416362A1 (INDUSTRIAL TECHNOLOGY RESEARCH INSTITUTE, published 2023)

Assays:
[1] = target: T1, human TIGIT expressed on cells (TIGIT/Jurkat cells; MJ[G11] cells; PBMC T cells) (human, UniProt Q495A1 22-244); test: flow cytometry competition on MJ[G11] cells; competitor DyLight 650-CD155-human Fc at 1.5 µg/ml
T1 construct: The cell line is named under assay; also called human TIGIT-expressing Jurkat cells
T1 sequence: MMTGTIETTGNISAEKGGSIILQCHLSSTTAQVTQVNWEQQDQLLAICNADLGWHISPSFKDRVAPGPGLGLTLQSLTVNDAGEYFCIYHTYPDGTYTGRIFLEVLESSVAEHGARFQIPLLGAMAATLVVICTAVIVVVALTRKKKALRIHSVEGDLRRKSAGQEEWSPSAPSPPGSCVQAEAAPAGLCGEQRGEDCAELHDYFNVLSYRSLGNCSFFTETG
Text: (§1) Anti-TIGIT antibodies, including hz7D4, and reference antibodies (15A6 and 1D3) were used to compete with CD155 for binding to cells expressing human TIGIT. MJ[G11] (American Type Culture Collection (ATCC), CRL-8294) is a CD3+CD4+T lymphoma cell line carrying human T cell leukemia virus (HTLV-I). MJ[G11] cells were characterized by immunostaining with regulatory T cell phenotypic antibody markers, including CD4, CD25, CD127, and FoxP3, and found to be a regulatory T cell-like cell line (FIG. 9A). Moreover, MJ[G11] cells express human TIGIT constitutively, as shown by immunostaining with PE-conjugated anti-human TIGIT, MBSA43 antibody (FIG. 9B). A sequential 3-fold dilution of anti-TIGIT antibodies was added to 5×10⁵ of human TIGIT-expressing Jurkat cells or 3×10⁵ of MJ[G11] cells in 50 μl FACS buffer (0.2% BSA in DPBS containing 0.09% sodium azide) and incubated on ice for 30 min. Then, 10 μl of DyLight 650-conjugated CD155-human Fc fusion protein were added to the cells, to reach a final concentration of 1 μg/ml for human TIGIT-Jurkat cells and 1.5 μg/ml for MJ[G11] cells, and incubated for 30 min at 4° C. Cells were washed and analyzed by a FACSCalibur cytometer (Becton Dickinson). IC₅₀ values were calculated based on normalized median fluorescence intensity (MFI) values. […]

[2] = target: T1, human TIGIT expressed on cells …; test: flow cytometry competition on TIGIT/Jurkat cells; competitor DyLight 650-CD155-human Fc at 1 µg/ml
Text: as §1

[3] = target: T2, recombinant human TIGIT IgV domain (human, UniProt Q495A1 22-141, limits assumed); test: phage display panning on biotinylated human TIGIT IgV domain
T2 construct: Made in NS0 or Expi293F cells, purified on Strep-Tactin XT; Biotinylated for phage panning; also called human TIGIT IgV protein; native (Nat) form human TIGIT protein
T2 chain: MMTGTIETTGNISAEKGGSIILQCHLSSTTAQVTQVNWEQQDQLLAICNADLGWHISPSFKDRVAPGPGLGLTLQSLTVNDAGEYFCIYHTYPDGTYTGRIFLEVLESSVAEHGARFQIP
Protocol: (§2) The phages were captured by incubation with 50 μl of M280 streptavidin magnetic beads (Thermo Fisher Scientific) for 15 min. Non-specific phages were eliminated by ten washes with PBS/0.1% Tween-20, followed by 10 washes with PBS for 5 min each. Bound phages were eluted with 0.1 M glycine (pH 2.0), neutralized with 1 M Tris-HCl (pH 8.0) and re-infected into log-phase TG1 cells. In the second panning round, phages (10⁹ cfu) were used against 0.1 nM of the biotinylated cyno TIGIT IgV domain.
(§3) The nucleotide sequences of the phage clones that bind to both human and cyno TIGIT IgV domains were determined. All heavy chain CDR3 (HCDR3) clones contain the wild type HCDR3 amino acid sequence of […] (SEQ ID NO: 3). Two light chain CDR3 (LCDR3) clones screened by the light chain library, designated 1A11 and 1E3, contain LCDR3 amino acid sequences of […] (SEQ ID NO: 23) and […] (SEQ ID NO: 24), respectively.

cyno TIGIT IgV domain = target: T3, cyno TIGIT IgV domain (cynomolgus monkey); test: phage display panning on biotinylated cyno TIGIT IgV domain
T3 construct: Biotinylated for phage panning; also called biotinylated cyno TIGIT IgV domain; cynomolgus monkey TIGIT
T3 sequence (chain, as listed by the source limits assumed): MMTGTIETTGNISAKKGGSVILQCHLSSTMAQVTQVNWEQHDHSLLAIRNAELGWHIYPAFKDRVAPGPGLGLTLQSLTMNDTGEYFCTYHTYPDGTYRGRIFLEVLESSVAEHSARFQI
Protocol: as §2, §3

Binder	IC50 [1] [pM]	IC50 [2] [pM]	binding result [3]	binding result (cyno TIGIT IgV domain)
hz7D4 hIgG1 (antibody, V domains shown, Human IgG1 (vector pFUSE-CHIg-hIG1) with human kappa constant region, made in CHO-S cells; also called humanized 7D4; hz7D4 human IgG1) VH: EVQLVQSGGGLVKPGGSLRLSCAASGYTFTNYWIGWVRQTPGKGLEWVGDIYPGSSFTNSNEKFKGRFTISADKSKNTAYLQMNSLRAEDTAVYYCARLGRGYWYFDVWGQGTLVTVSS VL: DIVLTQSPATLSASLGERATLSCSASSSVSYIHWYQQKPGQAPKLLIYTTSNLASGVPSRFSGSGSGTDFTLTISSLEAEDFATYYCHQWSRYPTFGGGTKLEIK	300	200		
1A11 scFv phage clone (scFv, V domains shown) VH: EVQLVQSGGGLVKPGGSLRLSCAASGYTFTNYWIGWVRQTPGKGLEWVGDIYPGSSFTNSNEKFKGRFTISADKSKNTAYLQMNSLRAEDTAVYYCARLGRGYWYFDVWGQGTLVTVSS VL: DIVLTQSPATLSASLGERATLSCSASSSVSYIHWYQQKPGQAPKLLIYTTSNLASGVPSRFSGSGSGTDFTLTISSLEAEDFATYYCQLFRSGSAFGGGTKLEIK			binds	binds
